The record followed here is patent publication US20080234193A1 (published 2008).

“And” between values parts separate entries of the source, which are not always exact repeats. Identical values can stand only once.

Data set [1] deals with PEG-rFVIII Lys 60K br long (UniProt P00451).
Data set [2] has as its target PEG-rFVIII Lys 20K br short (UniProt P00451).
For data set [3], the target named is PEG-rFVIII Lys 40K br short (UniProt P00451).
The target of data set [4] is PEG-rFVIII Lys 40K br long (UniProt P00451).
Data set [5] has as its target native rFVIII MOQ HEPES 01-E (Advate rAHF-PFM bulk drug substance) (UniProt P00451).
The target in data set [6] is PEG-rFVIII Lys 20K br long (UniProt P00451).
Data set [7] concerns the target PEG-rFVIII Lys 60K br short (UniProt P00451).
In data set [8] the target is activated factor IX (FIXa). Kind of data set: cell-based or functional assay.
Data set [9] has as its target native rVWF 133P1 (human) (UniProt P04275). The data set can be described thus: SPR (Biacore 3000): native rVWF 133P1 immobilized on CM5 chip, FVIII sample in flow, 1:1 Langmuir model. A general note: In SPR one partner is held on a chip, and binding of the other changes the refractive index at the surface.
Data set [10] addresses native rFVIII MOQ HEPES 01-E (Advate rAHF-PFM bulk drug substance) (UniProt P00451). Kind of data set: ELISA chromogenic assay (ECA): VWF-rFVIII complex captured on anti-VWF antibody, bound FVIII by chromogenic assay.
The target is the same in data set [11]. Kind of data set: ECA after in vitro incubation in Hepes buffer pH ~7.5 at ambient temperature, day 8.
Data set [12] has the same target. Kind of data set: ELISA chromogenic assay (ECA): VWF-rFVIII complex captured on anti-VWF antibody, bound FVIII by chromogenic assay. This is another data set of the same source.
For data set [13] the target is unchanged. Kind of data set: ECA, value related to the rVWF protein.
Data set [14] has the same target. The data set can be described thus: ECA after in vitro incubation in Hepes buffer pH ~7.5 at ambient temperature, day 2.
Data set [15] shares this target. Kind of data set: ELISA chromogenic assay (ECA): VWF-rFVIII complex captured on anti-VWF antibody, bound FVIII by chromogenic assay; percent of VWF:Ag. On the technique in general: ELISA stands for enzyme-linked immunosorbent assay.
Data set [16] has the same target. The data set can be described thus: ECA after in vitro incubation in Hepes buffer pH ~7.5 at ambient temperature, day 0.
Data set [17] has the same target. The data set can be described thus: ELISA chromogenic assay (ECA); mean of 133P1-1 to 133P1-3.
The target is the same in data set [18]. Kind of data set: SPR (Biacore 3000): rVWF sample immobilized on CM5 chip, rFVIII in flow, 1:1 Langmuir model.
Data set [19] has the same target. The data set can be described thus: SPR (Biacore 3000): rVWF sample immobilized on CM5 chip, rFVIII in flow, 1:1 Langmuir model; mean of 133P1-1 and 133P1-2.
Data set [20] shares this target. Kind of data set: SPR competition (Biacore): VWF-rFVIII complex (5 IU/ml rFVIII) in flow over immobilized unmodified rVWF (competitor).
Data set [21] shares this target. Kind of data set: SPR (Biacore 3000): rVWF sample immobilized on CM5 chip, rFVIII in flow, 1:1 Langmuir model. The source holds these as a separate data set.
The target is the same in data set [22]. Kind of data set: ECA after in vitro incubation in Hepes buffer pH ~7.5 at ambient temperature, day 5.
Data set [23] has the same target. The data set can be described thus: ECA, value as percent of VWF:Ag.
Data set [24] has as its target FVIII control (mock preparation, not PEGylated) (UniProt P00451).
For data set [25], the target named is PEG-rVWF Lys 40K br short low, P04275.
The target in data set [26] is PEG-rVWF Lys 40K br long low, P04275.
The target in data set [27] is PEG-rVWF Lys 20K br long low, P04275.
For data set [28], the target named is PEG-rVWF Lys 20K br short low, P04275.
The target of data set [29] is native rVWF 133P1, P04275.

Chain of PEG-rFVIII Lys 40K br short (P00451 whole entry, looked up): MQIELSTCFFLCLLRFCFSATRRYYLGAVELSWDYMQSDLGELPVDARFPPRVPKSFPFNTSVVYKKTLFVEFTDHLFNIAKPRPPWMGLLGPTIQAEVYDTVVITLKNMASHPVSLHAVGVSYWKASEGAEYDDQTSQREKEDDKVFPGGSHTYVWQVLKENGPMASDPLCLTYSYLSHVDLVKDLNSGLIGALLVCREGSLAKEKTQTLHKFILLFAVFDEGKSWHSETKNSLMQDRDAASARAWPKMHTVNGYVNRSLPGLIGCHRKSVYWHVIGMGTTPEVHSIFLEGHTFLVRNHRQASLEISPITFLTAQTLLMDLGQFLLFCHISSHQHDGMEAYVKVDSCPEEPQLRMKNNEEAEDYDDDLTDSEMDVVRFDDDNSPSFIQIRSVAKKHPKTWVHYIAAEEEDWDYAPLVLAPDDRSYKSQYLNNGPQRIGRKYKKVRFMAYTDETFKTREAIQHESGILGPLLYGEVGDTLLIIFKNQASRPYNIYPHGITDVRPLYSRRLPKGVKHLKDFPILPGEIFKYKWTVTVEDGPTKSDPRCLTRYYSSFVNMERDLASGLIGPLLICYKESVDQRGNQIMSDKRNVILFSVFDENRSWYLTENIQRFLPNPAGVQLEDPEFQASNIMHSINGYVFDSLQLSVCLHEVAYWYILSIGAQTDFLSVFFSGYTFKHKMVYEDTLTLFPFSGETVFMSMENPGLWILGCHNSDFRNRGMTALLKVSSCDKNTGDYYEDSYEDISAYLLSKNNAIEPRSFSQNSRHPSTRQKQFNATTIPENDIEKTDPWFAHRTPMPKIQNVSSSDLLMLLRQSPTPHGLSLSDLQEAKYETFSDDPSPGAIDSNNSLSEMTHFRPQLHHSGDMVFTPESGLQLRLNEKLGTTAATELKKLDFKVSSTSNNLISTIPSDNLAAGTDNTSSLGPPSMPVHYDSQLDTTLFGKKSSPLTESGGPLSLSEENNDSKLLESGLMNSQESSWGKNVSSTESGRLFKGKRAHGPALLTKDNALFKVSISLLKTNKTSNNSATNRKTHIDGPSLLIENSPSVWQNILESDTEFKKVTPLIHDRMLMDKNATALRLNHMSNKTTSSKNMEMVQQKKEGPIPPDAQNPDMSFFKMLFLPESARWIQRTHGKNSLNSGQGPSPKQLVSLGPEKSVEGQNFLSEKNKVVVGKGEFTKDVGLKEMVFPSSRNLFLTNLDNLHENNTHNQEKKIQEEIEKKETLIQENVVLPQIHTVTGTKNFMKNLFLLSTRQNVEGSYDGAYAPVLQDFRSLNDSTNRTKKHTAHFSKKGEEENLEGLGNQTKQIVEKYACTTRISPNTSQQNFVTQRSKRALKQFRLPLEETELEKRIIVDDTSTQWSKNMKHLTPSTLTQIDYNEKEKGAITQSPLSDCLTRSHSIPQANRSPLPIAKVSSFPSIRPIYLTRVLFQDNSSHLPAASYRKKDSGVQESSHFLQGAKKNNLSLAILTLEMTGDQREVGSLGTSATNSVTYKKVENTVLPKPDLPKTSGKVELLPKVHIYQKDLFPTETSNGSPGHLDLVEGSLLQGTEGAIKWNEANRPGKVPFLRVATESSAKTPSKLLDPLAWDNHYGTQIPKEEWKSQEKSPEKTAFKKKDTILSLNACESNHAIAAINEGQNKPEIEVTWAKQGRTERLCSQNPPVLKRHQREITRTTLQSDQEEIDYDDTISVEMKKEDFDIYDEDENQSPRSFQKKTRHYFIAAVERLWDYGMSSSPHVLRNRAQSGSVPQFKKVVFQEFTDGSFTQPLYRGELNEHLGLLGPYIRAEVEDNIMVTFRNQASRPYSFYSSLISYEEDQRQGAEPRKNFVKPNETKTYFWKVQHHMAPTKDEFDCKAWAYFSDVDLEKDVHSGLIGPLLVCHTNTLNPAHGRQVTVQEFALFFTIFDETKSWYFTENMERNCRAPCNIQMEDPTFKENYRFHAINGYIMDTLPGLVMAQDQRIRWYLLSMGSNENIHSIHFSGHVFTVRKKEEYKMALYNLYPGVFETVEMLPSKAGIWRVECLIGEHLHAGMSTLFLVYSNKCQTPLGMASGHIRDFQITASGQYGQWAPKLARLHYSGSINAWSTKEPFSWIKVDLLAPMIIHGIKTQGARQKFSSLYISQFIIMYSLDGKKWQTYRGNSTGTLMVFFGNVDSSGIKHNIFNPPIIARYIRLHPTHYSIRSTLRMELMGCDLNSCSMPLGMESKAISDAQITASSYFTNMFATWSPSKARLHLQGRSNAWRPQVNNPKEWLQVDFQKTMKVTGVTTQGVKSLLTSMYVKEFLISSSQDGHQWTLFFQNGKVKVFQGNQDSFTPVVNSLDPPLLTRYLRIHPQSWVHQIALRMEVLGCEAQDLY
Chain of PEG-rFVIII Lys 60K br long (P00451 whole entry, looked up): as above
Chain of PEG-rFVIII Lys 40K br long (P00451 whole entry, looked up): as above
Chain of PEG-rFVIII Lys 20K br long (P00451 whole entry, looked up): as above
Chain of PEG-rFVIII Lys 20K br short (P00451 whole entry, looked up): as above
Chain of PEG-rFVIII Lys 60K br short (P00451 whole entry, looked up): as above
Chain of FVIII control (mock preparation, not PEGylated) (P00451 whole entry, looked up): as above
Chain of native rFVIII MOQ HEPES 01-E (Advate rAHF-PFM bulk drug substance) (P00451 whole entry, looked up): as above

Regarding activated protein C (APC), the Relative k' of APC-mediated inactivation (non-activated FVIII) relative to native rFVIII came out at 0.38 in data set [1]; 0.46 in [2]; 0.44 in data set [3]; 0.35 in data set [4]; 0.56 in data set [6]; 0.52 in [7]. Further, the Relative k' of APC-mediated inactivation of thrombin-activated FVIII relative to native rFVIIIa in [1] is 0.64; in data set [2], 0.5; in [3], 0.55; in data set [4] it was 0.54; in data set [6], 0.5; in [7], 0.54. Also, the “first order rate of inactivation k', non-activated rFVIII, 0.05 U/ml APC” value in data set [5] is on record as “a first order rate inactivation was observed, with a k' of 0.220*min^-1”.

Turning to “native rFVIII MOQ HEPES 01-E (Advate rAHF-PFM bulk drug substance) (from UniProt P00451 20-2351)”, in data set [8], the lag phase (min), FIXa-cofactor activity after thrombin activation was 1.15 min; the lag phase (min), FIXa-cofactor activity without thrombin activation worked out at 2.4 min; the maximum FXa (nM), FIXa-cofactor activity after thrombin activation amounted to 25.1 nM; the maximum FXa (nM), FIXa-cofactor activity without thrombin activation was 30.1 nM. Also, in data set [8], the maximum rate (nM FXa/min), FIXa-cofactor activity after thrombin activation amounted to 4.24 nM FXa/min; the maximum rate (nM FXa/min), FIXa-cofactor activity without thrombin activation was 6.7 nM FXa/min; the t1/2 of maximum (min), FIXa-cofactor activity after thrombin activation was 4.24 min; the t1/2 of maximum (min), FIXa-cofactor activity without thrombin activation worked out at 4.6 min. In data set [9], the Kd came to 1.5 nM.

With “native rVWF 133P1 (from UniProt P04275 764-2813)”, the VWF:FVIIIB (U/ml) in [10] was 47.9 U/ml and 37.9 U/ml and 37.8 U/ml; in [12], 46 U/ml; in data set [17], 41.2 U/ml. In addition, the VWF:FVIIIB specific activity (U/mg protein) came out at 84 U/mg protein in [11], 66 U/mg protein in [14], 81 U/mg protein in [16] and 93 U/mg protein in [22]. In data set [13], the VWF:FVIIIB (U/mg) was found to be 134 U/mg. Moreover, in data set [15], the VWF:FVIIIB capacity (%) was determined as 84%. Besides, the Kd in data set [18] was 0.29 nM and 0.55 nM and 0.48 nM; in [19], 0.39 nM; in [21], 0.549 nM. The VWF to FVIII ratio to keep all FVIII in a complex in [20] worked out at 1 µg/IU.

In the case of “rVWF control (mock preparation, not PEGylated) (from UniProt P04275 764-2813)”, in data set [23], the VWF:FVIIIB capacity (%) is 84%. For the same molecule, the VWF:FVIIIB (U/ml) in [10] stood at 15.5 U/ml. For the same molecule, the VWF:FVIIIB (U/mg) in data set [13] worked out at 95 U/mg.

On to thrombin, for which the Relative k' (first order inactivation rate relative to native rFVIII), 0.5 nM thrombin, FIXa-cofactor assay in [1] was determined as 0.51; in [2], 0.35; in data set [3], 0.48; in data set [4], 0.44; in data set [6], 0.39; in data set [24], 0.72. This molecule registered a Relative k' (first order inactivation rate relative to native rFVIII), 0.5 nM thrombin, FIXa-cofactor assay in [7] of 0.46.

B1: ADAMTS13 (VWF cleaving protease) (protein)
chain: AAGGILHLELLVAVGPDVFQAHQEDTERYVLTNLNIGAELLRDPSLGAQFRVHLVKMVILTEPEGAPNITANLTSSLLSVCGWSQTINPEDDTDPGHADLVLYITRFDLELPDGNRQVRGVTQLGGACSPTWSCLITEDTGFDLGVTIAHEIGHSFGLEHDGAPGSGCGPSGHVMASDGAAPRAGLAWSPCSRRQLLSLLSAGRARCVWDPPRPQPGSAGHPPDAQPGLYYSANEQCRVAFGPKAVACTFAREHLDMCQALSCHTDPLDQSSCSRLLVPLLDGTECGVEKWCSKGRCRSLVELTPIAAVHGRWSSWGPRSPCSRSCGGGVVTRRRQCNNPRPAFGGRACVGADLQAEMCNTQACEKTQLEFMSQQCARTDGQPLRSSPGGASFYHWGAAVPHSQGDALCRHMCRAIGESFIMKRGDSFLDGTRCMPSGPREDGTLSLCVSGSCRTFGCDGRMDSQQVWDRCQVCGGDNSTCSPRKGSFTAGRAREYVTFLTVTPNLTSVYIANHRPLFTHLAVRIGGRYVVAGKMSISPNTTYPSLLEDGRVEYRVALTEDRLPRLEEIRIWGPLQEDADIQVYRRYGEEYGNLTRPDITFTYFQPKPRQAWVWAAVRGPCSVSCGAGLRWVNYSCLDQARKELVETVQCQGSQQPPAWPEACVLEPCPPYWAVGDFGPCSASCGGGLRERPVRCVEAQGSLLKTLPPARCRAGAQQPAVALETCNPQPCPARWEVSEPSSCTSAGGAGLALENETCVPGADGLEAPVTEGPGSVDEKLPAPEPCVGMSCPPGWGHLDATSAGEKAPSPWGSIRTGAQAAHVWTPAAGSCSVSCGRGLMELRFLCMDSALRVPVQEELCGLASKPGSRREVCQAVPCPARWQYKLAACSVSCGRGVVRRILYCARAHGEDDGEEILLDTQCQGLPRPEPQEACSLEPCPPRWKVMSLGPCSASCGLGTARRSVACVQLDQGQDVEVDEAACAALVRPEASVPCLIADCTYRWHVGTWMECSVSCGDGIQRRRDTCLGPQAQAPVPADFCQHLPKPVTVRGCWAGPCVGQGTPSLVPHEEAAAPGRTTATPAGASLEWSQARGLLFSPAPQPRRLLPGPQENSVQSSACGRQHLEPTGTIDMRGPGQADCAVAIGRPLGEVVTLRVLESSLNCSAGDMLLLWGRLTWRKMCRKLLDMTFSSKTNTLVVRQRCGRPGGGVLLRYGSQLAPETFYRECDMQLFGPWGEIVSPSLSPATSNAGGCRLFINVAPHARIAIHALATNMGAGTEGANASYILIRDTHSLRTTAFHGQQVLYWESESSQAEMEFSEGFLKAQASLRGQYWTLQSWVPEMQDPQSWKGKEGT
B1: the “loss of VWF:CB activity after 4 h incubation with ADAMTS13 under denaturing conditions” value in data set [25], in data set [26], in data set [27] and in data set [28] was “The PEGylated conjugates showed a slightly higher susceptibility to ADAMTS13 than their parent native rVWF” throughout. Moreover, in data set [29], the “disappearance of higher molecular weight multimers after incubation with ADAMTS13” value is on record as “All preparations showed similar sensitivity to ADAMTS13”.

As a reminder, the Kd is the equilibrium constant for the complex coming apart.
